This is an account of results in article PMC3218020, “Subtype Differences in Pre-Coupling of Muscarinic Acetylcholine Receptors” (PLoS ONE, 2011).

Assay [1] has as its target G_(s/olf) G-proteins (Chinese hamster (endogenous in CHO)).
For assay [2], the target named is Gi/o G-proteins (Chinese hamster (endogenous in CHO)).
In assay [3] the target is G_(q/11) G-proteins (Chinese hamster (endogenous in CHO)).
The target of assay [4] is G-proteins (Chinese hamster (endogenous in CHO)).
For assay [5], the target named is T1, M2 muscarinic acetylcholine receptor (Homo sapiens, UniProt P08172).
T1 construct: gene CHRM2; full-length receptor stably expressed in CHO cells, crude membranes
T1 sequence (P08172 1-466): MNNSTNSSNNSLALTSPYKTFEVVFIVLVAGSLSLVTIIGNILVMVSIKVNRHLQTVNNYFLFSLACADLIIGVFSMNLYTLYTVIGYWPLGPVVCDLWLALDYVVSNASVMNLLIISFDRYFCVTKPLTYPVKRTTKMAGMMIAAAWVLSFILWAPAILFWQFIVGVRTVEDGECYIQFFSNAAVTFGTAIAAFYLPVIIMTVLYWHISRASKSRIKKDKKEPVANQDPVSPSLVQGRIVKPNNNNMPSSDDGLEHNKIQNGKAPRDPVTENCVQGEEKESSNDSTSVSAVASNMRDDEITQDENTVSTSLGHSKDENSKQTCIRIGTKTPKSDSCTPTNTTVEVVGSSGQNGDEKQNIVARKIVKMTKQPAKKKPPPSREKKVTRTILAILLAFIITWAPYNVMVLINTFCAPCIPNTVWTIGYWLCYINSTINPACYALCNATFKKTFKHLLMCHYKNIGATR
Put plainly: radioligand binding, CHO membranes. Particulars: labelled compound; antagonist; […] °C, pH […].

“human M4 muscarinic acetylcholine receptor (from UniProt P08173 1-479)”: the EMAX of carbachol-stimulated [35S]GTPγS binding to G (s/olf) G-proteins via the receptor (scintillation proximity assay, CHO membranes, carbachol 0.1 µM to 1 mM) (fold increase of basal binding) in assay [1] amounted to 2.18. For the same molecule, the EMAX of carbachol-stimulated [35S]GTPγS binding to Gi/o G-proteins via the receptor (scintillation proximity assay, CHO membranes, carbachol 0.1 µM to 1 mM) (fold increase of basal binding) in assay [2] was determined as 3.15. In addition, in assay [3], the EMAX of carbachol-stimulated [35S]GTPγS binding to G (q/11) G-proteins via the receptor (scintillation proximity assay, CHO membranes, carbachol 0.1 µM to 1 mM) (fold increase of basal binding) is 1.59.

For “wild-type human M1 muscarinic receptor (newly prepared CHO cell line) (from UniProt P11229 1-460)”, the fraction of low-affinity sites (f low) for carbachol in competition with 1 nM [3H]NMS, membranes of the newly prepared CHO cell line in assay [4] amounted to 72 percent.

As to `C[N+]1(C)[C@@H]2C[C@@H](OC(=O)[C@H](CO)c3ccccc3)C[C@H]1[C@@H]1O[C@@H]12` [[3H]-N-methylscopolamine], the “radioligand binding, CHO membranes” value in assay [5] is given as “N-methylscopolamine binding was measured directly in saturation experiments using six concentrations”.

In assay [1], “human M2 muscarinic acetylcholine receptor (from UniProt P08172 1-466)” came in with an EMAX of carbachol-stimulated [35S]GTPγS binding to G (s/olf) G-proteins via the receptor (scintillation proximity assay, CHO membranes, carbachol 0.1 µM to 1 mM) (fold increase of basal binding) of 1.93. For the same molecule, in assay [2], the EMAX of carbachol-stimulated [35S]GTPγS binding to Gi/o G-proteins via the receptor (scintillation proximity assay, CHO membranes, carbachol 0.1 µM to 1 mM) (fold increase of basal binding) was 3.44. The EMAX of carbachol-stimulated [35S]GTPγS binding to G (q/11) G-proteins via the receptor (scintillation proximity assay, CHO membranes, carbachol 0.1 µM to 1 mM) (fold increase of basal binding) in assay [3] was found to be 1.63.

In assay [1], “human M1 muscarinic acetylcholine receptor (from UniProt P11229 1-460)” registered an EMAX of carbachol-stimulated [35S]GTPγS binding to G (s/olf) G-proteins via the receptor (scintillation proximity assay, CHO membranes, carbachol 0.1 µM to 1 mM) (fold increase of basal binding) of 1.92. For the same molecule, in assay [2], the EMAX of carbachol-stimulated [35S]GTPγS binding to Gi/o G-proteins via the receptor (scintillation proximity assay, CHO membranes, carbachol 0.1 µM to 1 mM) (fold increase of basal binding) amounted to 2.01. For the same molecule, in assay [3], the EMAX of carbachol-stimulated [35S]GTPγS binding to G (q/11) G-proteins via the receptor (scintillation proximity assay, CHO membranes, carbachol 0.1 µM to 1 mM) (fold increase of basal binding) came out at 3.9.

On to “human M3 muscarinic acetylcholine receptor (from UniProt P20309 1-590)”, for which, in assay [1], the EMAX of carbachol-stimulated [35S]GTPγS binding to G (s/olf) G-proteins via the receptor (scintillation proximity assay, CHO membranes, carbachol 0.1 µM to 1 mM) (fold increase of basal binding) amounted to 2.16. Also, the EMAX of carbachol-stimulated [35S]GTPγS binding to Gi/o G-proteins via the receptor (scintillation proximity assay, CHO membranes, carbachol 0.1 µM to 1 mM) (fold increase of basal binding) in assay [2] is 2.16. In assay [3], this molecule returned an EMAX of carbachol-stimulated [35S]GTPγS binding to G (q/11) G-proteins via the receptor (scintillation proximity assay, CHO membranes, carbachol 0.1 µM to 1 mM) (fold increase of basal binding) of 3.31.
